# According to publication PMC4914107 (Nucleic Acids Research, 2016):
# T1: RAD51 (purified) (UniProt Q06609 1-339)
# T1 sequence (looked up): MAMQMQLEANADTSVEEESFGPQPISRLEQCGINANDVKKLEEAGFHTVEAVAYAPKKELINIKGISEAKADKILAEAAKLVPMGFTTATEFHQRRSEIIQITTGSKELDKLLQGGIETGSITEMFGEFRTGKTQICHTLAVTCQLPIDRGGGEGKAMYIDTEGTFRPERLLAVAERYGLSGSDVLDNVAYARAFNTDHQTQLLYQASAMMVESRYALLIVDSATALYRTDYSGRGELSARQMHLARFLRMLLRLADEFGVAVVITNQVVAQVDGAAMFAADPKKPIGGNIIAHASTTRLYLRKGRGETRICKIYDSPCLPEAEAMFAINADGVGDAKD
# Molecular target: T1, RAD51 (purified)
# Assay: pull-down
binder,measurement,value
"2XMBP-BRC4-DBD (domain or fragment, human) PVGTGNQLVTFQGQPERDEKIKEPTLLGFHTASGKKVKIAKESLDKVKNLFDEKEQGTSEITSFSHQWAKTLKYREACKDLELACETIEITAAPGGGSPYLSQFQQDKQQLVLGTKVSLVENIHVLGKEQASPKNVKMEIGKTETFSDVPVKTNIEVCSTYSKDSENYFETEAVEIAKAFMEDDELTDSKLPSHATHSLFTCPENEEMVLSNSRIGKRRGEPLILVGEPSIKRNLLNEFDRIIENQEKSLKASKSTPDGTIKDRRLFMHHVSLEPITCVPFRTTKERQEIQNPNFTAPGQEFLSKSHLYEHLTLEKSSSNLAVSGHPFYQVSATRNEKMRHLITTGRPTKVFVPPFKTKSHFHRVEQCVRNINLEENRQKQNIDGHGSDDSKNKINDNEIHQFNKNNSNQAVAVTFTKCEEEPLDLITSLQNARDIQDMRIKKKQRQRVFPQPGSLYLAKTSTLPRISLKAAVGGQVPSACSHKQLYTYGVSKHCIKINSKNAESFQFHTEDYFGKESLWTGKGIQLADGGWLIPSNDGKAGKEEFYRALCDTPGVDPKLISRIWVYNHYRWIIWKLAAMECAFPKEFANRCLSPERVLLQLKYRYDTEIDRSRRSAIKKIMERDDTAAKTLVLCVSDIISLSANISETSSNKTSSADTQKVAIIELTDGWYAVKAQLDPPLLAVLKNGRLTVGQKIILHGAELVGSPDACTPLEAPESLMLKISANSTRPARWYTKLGFFPDPRPFPLPLSSLFSDGGNVGCVDVIIQRAYPIQWMEKTSSGLYIFRNEREEEKEAAKYVEAQQKRLEALFTKIQEEFEEHEENTTKPYLPSRALTRQQVRALQDGAELYEAVKNAADPAYLEGYFSEEQLRALNNHRQMLNDKKQAQIQLEIRKAMESAEQKEQGLSRDVTTVWKLRIVSYSKKEKDSVILSIWRPSSDLYSLLTEGKRYRIYHLATSKSKSKSERANIQLAATKKTQYQQLPVSDEILFQIYQPREPLHFSKFLDPDFQPSCSEVDLIGFVVSVVKKTGLAPFVYLSDECYNLLAIKFWIDLNEDIIKPHMLIAASNLQWRPESKSGLLTLFAGDFSVFSASPKEGHFQETFNKMKNTVENIDILCNEAENKLMHILHANDPKWSTPTKDCTSGPYTAQIIPGTGNKLLMSSPNCEIYYQSPLSLCMAKRKSVSTPVSAQMTSKSCKGEKEIDDQKNCKKRRALDFLSRLPLPPPVSPICTFVSPAAQKAFQPPRSCGTKYETPIKKKELNSPQMTPFKKFNEISLLESNSIADEELALINTQALLSGSTGEKQFISVSESTRTAPTSSEDYLRLKRRCTTSLIKEQESSQASTEECEKNKQDTITTKKYI",binding result,binds
